Biological target: EphB2-GFP (UniProt P29323)
Sequence of UniProt P29323 (P29323 19-1055): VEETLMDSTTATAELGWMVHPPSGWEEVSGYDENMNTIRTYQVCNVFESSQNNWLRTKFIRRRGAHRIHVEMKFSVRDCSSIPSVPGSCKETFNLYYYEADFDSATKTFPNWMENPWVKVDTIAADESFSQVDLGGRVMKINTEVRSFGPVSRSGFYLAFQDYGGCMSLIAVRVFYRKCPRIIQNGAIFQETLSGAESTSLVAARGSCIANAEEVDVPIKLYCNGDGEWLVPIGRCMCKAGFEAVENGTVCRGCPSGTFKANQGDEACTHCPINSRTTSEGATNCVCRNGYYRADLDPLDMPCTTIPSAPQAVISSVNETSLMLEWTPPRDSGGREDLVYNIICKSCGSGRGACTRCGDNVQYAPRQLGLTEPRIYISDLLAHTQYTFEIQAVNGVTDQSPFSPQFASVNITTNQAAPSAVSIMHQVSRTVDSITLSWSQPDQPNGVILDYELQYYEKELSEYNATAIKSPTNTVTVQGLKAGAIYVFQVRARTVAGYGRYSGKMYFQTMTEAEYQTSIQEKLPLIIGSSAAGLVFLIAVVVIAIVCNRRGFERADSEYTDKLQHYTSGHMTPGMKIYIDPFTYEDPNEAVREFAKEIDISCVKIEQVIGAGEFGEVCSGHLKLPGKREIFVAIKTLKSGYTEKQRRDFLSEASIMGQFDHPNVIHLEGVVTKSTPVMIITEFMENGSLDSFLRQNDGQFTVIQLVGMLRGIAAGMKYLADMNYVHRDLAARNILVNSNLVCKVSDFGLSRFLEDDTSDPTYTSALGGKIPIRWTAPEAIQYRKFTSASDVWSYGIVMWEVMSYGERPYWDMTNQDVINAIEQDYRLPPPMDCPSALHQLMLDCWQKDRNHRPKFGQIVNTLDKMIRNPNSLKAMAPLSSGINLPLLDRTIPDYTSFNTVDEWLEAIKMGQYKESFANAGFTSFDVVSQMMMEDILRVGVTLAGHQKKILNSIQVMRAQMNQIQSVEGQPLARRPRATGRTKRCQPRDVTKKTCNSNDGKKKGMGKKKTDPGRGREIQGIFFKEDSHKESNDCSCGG

- decrease in HeLa cell area (collapse) of Control shRNA EphB2-OE cells after 15 min with 1 ug/mL pre-clustered eB2 against Fc: 50%
Substance: ephrin-B2-Fc (from UniProt P52799 28-229) (Fc fusion)

Reference: PMC6697728
